Key:
Format in all cases: biochemical
Settings in all cases: 30° C., pH 7.0
[1] = Activity of uridylyltransferase (G-1) to produce uridine diphosphate-N-acetylglucosamine
Description: (§1) Reaction solution (10-1) was prepared by adding 10 μL of uridine triphosphate-monosaccharide-1-phosphate uridylyltransferase aqueous solution (G-1) obtained in Preparation 10 to 1 mL of aqueous solution (50 mM phosphate buffer (pH of 7.0) containing 100 mM sodium chloride, 10 mM magnesium chloride, 10 mM uridine triphosphate, and 10 mM N-acetylglucosamine-1-phosphate). Three such reaction solutions (10-1) were prepared and allowed to react at 30° C. for 5 minutes, 10 minutes, and 15 minutes, respectively. As for the quantity of the produced uridine diphosphate-N-acetylglucosamine, the product was detected with a UV light (260 nm) in HPLC. The activity of uridine triphosphate-monosaccharide-1-phosphate uridylyltransferase to produce uridine diphosphate-N-acetylglucosamine was determined from the amount of uridine diphosphate-N-acetylglucosamine production. The result was 0.1 U/mL.

[2] = Activity of uridylyltransferase (G-1) to produce uridine diphosphate-glucuronic acid
Description: as §1
The activity of uridine triphosphate-monosaccharide-1-phosphate uridylyltransferase to produce uridine diphosphate-glucuronic acid was determined in a similar manner as described above, except that an aqueous solution containing “10 mM glucuronic acid 1-phosphate” was used in place of “10 mM N-acetylglucosamine-1-phosphate” and “uridine diphosphate-glucuronic acid” was quantitated in place of “uridine diphosphate-N-acetylglucosamine”. The result was 5 U/μL.

[3] = Specific activity of chondroitin synthase aqueous solution
Description: Reaction solution (11) was prepared by adding 10 μL of chondroitin synthase aqueous solution (B-2) obtained in Preparation 11 to 1 mL of aqueous solution T (50 mM phosphate buffer (pH of 7.0) containing 1 mM uridine diphosphate-glucuronic acid (^14C-labeled radioactive isotope-containing uridine diphosphate-glucuronic acid; radioactivity of 300 mCi/mmol), 1 mM uridine diphosphate-N-acetylgalactosamine, 100 mM sodium chloride, 10 mM magnesium chloride, 10 mM dodecylmaltoside, and 5 mM oleic acid). Three such reaction solutions (11) were prepared and allowed to react at 30° C. for 5 minutes, 10 minutes, and 15 minutes, respectively. Chondroitin was separated from the unreacted substrate by paper chromatography using filter paper. Subsequently, the origin was cut out and immersed in a liquid scintillation cocktail, and the radioactive isotope was then measured using a liquid scintillation counter. The yield of chondroitin was calculated from the amount of uptake of ^14C-labeled glucuronic acid. The results were 1.7 μg after 5 minutes, 3.1 μg after 10 minutes, and 4.4 μg after 15 minutes. The specific activity of chondroitin synthase aqueous solution (B-2) was calculated from the relationship between the yield of chondroitin and the reaction time. The result was 0.15 U/mL.

[4] = Specific activity of starch synthase aqueous solution
Description: Reaction solution (13) was prepared by adding 10 μL of starch synthase aqueous solution (B-4) obtained in Preparation 13 to 1 mL of aqueous solution V (50 mM phosphate buffer (pH of 7.0) containing 100 mM uridine diphosphate-α-glucose (^14C-labeled radioactive isotope-containing uridine diphosphate-α-glucose; radioactivity of 300 mCi/mmol), 100 mM sodium chloride, 10 mM magnesium chloride, and 5 mM oleic acid). Four such solutions (13) were prepared and allowed to react at 30° C. for 5 minutes, 10 minutes, 15 minutes, and 20 minutes, respectively. Starch was separated from the unreacted substrate by paper chromatography using filter paper, and then the origin was cut out and immersed in a liquid scintillation cocktail. The radioactive isotope was then measured using a liquid scintillation counter. The yield of starch was calculated from the amount of uptake of ^14C-labeled glucose. The results were 1.3 mg after 5 minutes, 2.5 mg after 10 minutes, 3.8 mg after 15 minutes, and 5.2 mg after 20 minutes. The specific activity of starch synthase aqueous solution (B-4) was calculated from the relationship between the yield of starch and the reaction time. The result was 0.15 U/μL.

[5] = Specific activity of hyaluronan synthase aqueous solution (14C-glucuronic acid uptake)
Description: Reaction solution (1) was prepared by adding 10 μL of hyaluronan synthase aqueous solution (B-1) obtained in Preparation 1 to 1 mL of aqueous solution S (50 mM phosphate buffer (pH of 7.0) containing 1 mM uridine diphosphate-glucuronic acid (labeled radioactive radioactivity of 300 mCi/mmol), 1 mM uridine diphosphate-N-acetylglucosamine, 100 mM sodium chloride, 10 mM magnesium chloride, 10 mM dodecylmaltoside, and 5 mM oleic acid). Four such reaction solutions (1) were prepared and allowed to react at 30° C. for 5 minutes, 10 minutes, 15 minutes, and 20 minutes, respectively. Hyaluronan was separated from the unreacted substrate by paper chromatography (developing solvent containing 1 M ammonium acetate (pH of 5.5) and ethanol at a 7:13 ratio, hereinafter the same) using filter paper (Whatman No. 3 MM, hereinafter the same), and then the origin was cut out and immersed in a liquid scintillation cocktail. The radioactive isotope was then measured using a liquid scintillation counter. The amount of hyaluronan synthesis was calculated from the amount of uptake of ^14C-labeled glucuronic acid. The results were 1.6 mg after 5 minutes, 2.9 mg after 10 minutes, 4.2 mg after 15 minutes, and 5.5 mg after 20 minutes. The specific activity of hyaluronan synthase aqueous solution (B-1) was calculated from the relationship between the amount of hyaluronan synthesis and the reaction time. […]

B1: uridine triphosphate-monosaccharide-1-phosphate uridylyltransferase aqueous solution (G-1): uridylyltransferase, SEQ ID NO: 10, derived from Arabidopsis (protein)
chain: MASTVDSNFFSSVPALHSNLGLLSPDQIELAKILLENGQSHLFQQWPELGVDDKEKLAFFDQIARLNSSYPGGLAAYIKTAKELLADSKVGKNPYDGFSPSVPSGENLTFGTDNFIEMEKRGVVEARNAAFVLVAGGLGERLGYNGIKVALPRETTTGTCFLQHYIESILALQEASNKIDSDGSERDIPFIIMTSDDTHSRTLDLLELNSYFGMKPTQVHLLKQEKVACLDDNDARLALDPHNKYSIQTKPHGHGDVHSLLYSSGLLHKWLEAGLKWVLFFQDTNGLLFNAIPASLGVSATKQYHVNSLAVPRKAKEAIGGISKLTHVDGRSMVINVEYNQLDPLLRASGFPDGDVNCETGFSPFPGNINQLILELGPYKDELQKTGGAIKEFVNPKYKDSTKTAFKSSTRLECMMQDYPKTLPPTARVGFTVMDIWLAYAPVKNNPEDAAKVPKGNPYHSATSGEMAIYRANSLILQKAGVKVEEPVKQVLNGQEVEVWSRITWKPKWGMIFSDIKKKVSGNCEVSQRSTMAIKGRNVFIKDLSLDGALIVDSIDDAEVKLGGLINNGWTMESVDYKDTSVPEEIRIRGFRFNKVEQLEKKLTQPGKFSVED
modifications: aqueous solution; Arabidopsis
In the case of B1, the “activity to produce uridine diphosphate-N-acetylglucosamine” value [1] is reported as 0.1 U/mL and the “activity to produce uridine diphosphate-glucuronic acid” value [2] is reported as 5 U/μL.

B2: chondroitin synthase aqueous solution (B-2): chondroitin synthase, SEQ ID NO: 11, derived from Pasteurella multocida (protein, listed as Pasteurella multocida)
chain: MNTLSQAIKAYNSNDYELALKLFEKSAETYGRKIVEFQIIKCKEKLSTNSYVSEDKKNSVCDSSLDIATQLLLSNVKKLTLSESEKNSLKNKWKSITGKKSENAEIRKVELVPKDFPKDLVLAPLPDHVNDFTWYKNRKKSLGIKPVNKNIGLSIIIPTFNRSRILDITLACLVNQKTNYPFEVVVADDGSKENLLTIVQKYEQKLDIKYVRQKDYGYQLCAVRNLGLRTAKYDFVSILDCDMAPQQLWVHSYLTELLEDNDIVLIGPRKYVDTHNITAEQFLNDPYLIESLPETATNNNPSITSKGNISLDWRLEHFKKTDNLRLCDSPFRYFSCGNVAFSKEWLNKVGWFDEEFNHWGGEDVEFGYRLFAKGCFFRVIDGGMAYHQEPPGKENETDREAGKSITLKIVKEKVPYIYRKLLPIEDSHIHRIPLVSIYIPAYNCANYIQRCVDSALNQTVVDLEVCICNDGSTDNTLEVINKLYGNNPRVRIMSKPNGGIASASNAAVSFAKGYYIGQLDSDDYLEPDAVELCLKEFLKDKTLACVYTTNRNVNPDGSLIANGYNWPEFSREKLTTAMIAHHFRMFTIRAWHLTDGFNENIENAVDYDMFLKLSEVGKFKHLNKICYNRVLHGDNTSIKKLGIQKKNHFVVVNQSLNRQGINYYNYDKFDDLDESRKYIFNKTAEYQEEMDILKDLKLIQNKDAKIAVSIFYPNTLNGLVKKLNNIIEYNKNIFVIILHVDKNHLTPDIKKEILAFYHKHQVNILLNNDISYYTSNRLIKTEAHLSNINKLSQLNLNCEYIIFDNHDSLFVKNDSYAYMKKYDVGMNFSALTHDWIEKINAHPPFKKLIKTYFNDNDLRSMNVKGASQGMFMKYALPHELLTIIKEVITSCQSIDSVPEYNTEDIWFQFALLILEKKTGHVFNKTSTLTYMPWERKLQWTNEQIQSAKKGENIPVNKFIINSITL
modifications: aqueous solution
B2 gave a specific activity [3] of 0.15 U/mL.

B3: starch synthase aqueous solution (B-4): starch synthase, SEQ ID NO: 13, derived from Saccharomyces cerevisiae (protein, listed as Saccharomyces cerevisiae)
chain: MSRDLQNHLLFETATEVANRVGGIYSVLKSKAPITVAQYKDHYHLIGPLNKATYQNEVDILDWKKPEAFSDEMRPVQHALQTMESRGVHFVYGRWLIEGAPKVILFDLDSVRGYSNEWKGDLWSLVGIPSPENDFETNDAILLGYTVAWFLGEVAHLDSQHAIVAHFHEWLAGVALPLCRKRRIDVVTIFTTHATLLGRYLCASGSFDFYNCLESVDVDHEAGRFGIYHRYCIERAAAHSADVFTTVSQITAFEAEHLLKRKPDGILPNGLNVIKFQAFHEFQNLHALKKEKINDFVRGHFHGCFDFDLDNTLYFFIAGRYEYKNKGADMFIEALARLNYRLKVSGSKKTVVAFIVMPAKNNSFTVEALKGQAEVRALENTVHEVTTSIGKRIFDHAIRYPHNGLTTELPTDLGELLKSSDKVMLKRRILALRRPEGQLPPIVTHNMVDDANDLILNKIRQVQLFNSPSDRVKMIFHPEFLNANNPILGLDYDEFVRGCHLGVFPSYYEPWGYTPAECTVMGVPSITTNVSGFGAYMEDLIETNQAKDYGIYIVDRRFKAPDESVEQLVDYMEEFVKKTRRQRINQRNRTERLSDLLDWKRMGLEYVKARQLALRRGYPDQFRELVGEELNDSNMDALAGGKKLKVARPLSVPGSPRDLRSNSTVYMTPGDLGTLQEVNNADDYFSLGVNPAADDDDDGPYADDS
In the case of B3, the specific activity [4] is reported as 0.15 U/μL.

B4: hyaluronan synthase aqueous solution (B-1): FLAG-tagged hyaluronan synthase, SEQ ID NO: 1, from Streptococcus equisimilis, expressed in E. coli (protein)
chain: MPIFKKTLIVLSFIFLISILIYLNMYLFGTSTVGIYGVILITYLVIKLGLSFLYEPFKGNPHDYKVAAVIPSYNEDAESLLETLKSVLAQTYPLSEIYIVDDGSSNTDAIQLIEEYVNREVDICRNVIVHRSLVNKGKRHAQAWAFERSDADVFLTVDSDTYIYPNALEELLKSFNDETVYAATGHLNARNRQTNLLTRLTDIRYDNAFGVERAAQSLTGNILVCSGPLSIYRREVIIPNLERYKNQTFLGLPVSIGDDRCLTNYAIDLGRTVYQSTARCDTDVPFQLKSYLKQQNRWNKSFFRESIISVKKILSNPIVALWTIFEVVMFMMLIVAIGNLLFNQAIQLDLIKLFAFLSIIFIVALCRNVHYMVKHPASFLLSPLYGILHLFVLQPLKLYSLCTIKNTEWGTRKKVTIFK
modifications: FLAG tag; aqueous solution; STREPTOCOCCUS
B4 showed a specific activity [5] of 0.15 U/μL.

Reference: patent US9670514B2, “Method for producing polysaccharide” (SANYO CHEMICAL INDUSTRIES, LTD., priority 2011, dated 2017)
